Measured values taken from article doi:10.1101/2021.01.28.428596.

Molecular target: RIR1-GFP (ProRIR1:RIR1-GFP in the rir1-1 mutant) (Arabidopsis thaliana) (UniProt C0LGG9)
Test: FRET or BRET

Sequence of UniProt C0LGG9 (C0LGG9 27-1035, change not shown): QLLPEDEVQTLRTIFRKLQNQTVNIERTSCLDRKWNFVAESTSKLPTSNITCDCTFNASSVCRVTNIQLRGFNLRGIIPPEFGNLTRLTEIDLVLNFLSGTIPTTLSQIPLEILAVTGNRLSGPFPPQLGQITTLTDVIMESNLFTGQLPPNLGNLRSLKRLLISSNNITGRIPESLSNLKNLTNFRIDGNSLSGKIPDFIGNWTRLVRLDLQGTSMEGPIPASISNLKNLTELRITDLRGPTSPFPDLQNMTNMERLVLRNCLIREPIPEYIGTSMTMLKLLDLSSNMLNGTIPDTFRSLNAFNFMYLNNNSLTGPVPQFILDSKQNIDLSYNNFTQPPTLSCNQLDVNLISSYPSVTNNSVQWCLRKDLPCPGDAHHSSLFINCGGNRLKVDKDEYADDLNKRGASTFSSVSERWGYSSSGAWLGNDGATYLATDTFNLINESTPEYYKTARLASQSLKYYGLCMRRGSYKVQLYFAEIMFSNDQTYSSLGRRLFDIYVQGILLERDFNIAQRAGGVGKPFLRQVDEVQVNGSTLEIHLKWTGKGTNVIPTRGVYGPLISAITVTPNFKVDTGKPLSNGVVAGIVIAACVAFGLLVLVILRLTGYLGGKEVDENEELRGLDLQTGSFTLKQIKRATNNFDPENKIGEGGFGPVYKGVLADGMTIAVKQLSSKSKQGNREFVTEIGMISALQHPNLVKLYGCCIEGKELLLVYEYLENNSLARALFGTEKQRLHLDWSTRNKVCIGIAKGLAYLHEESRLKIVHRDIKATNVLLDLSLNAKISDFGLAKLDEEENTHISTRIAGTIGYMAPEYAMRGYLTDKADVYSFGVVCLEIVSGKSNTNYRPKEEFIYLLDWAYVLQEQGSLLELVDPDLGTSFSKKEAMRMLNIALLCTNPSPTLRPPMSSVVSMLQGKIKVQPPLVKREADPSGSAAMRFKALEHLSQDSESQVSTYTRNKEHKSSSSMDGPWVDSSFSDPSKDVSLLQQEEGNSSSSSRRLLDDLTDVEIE

GFP donor fluorescence lifetime with acceptor (τDA): 2.21 ns
Substance: mCherry-REM1.2 (ProREM1.2-mCherry-REM1.2 in rir1-1/RIR1-GFP#3) (from UniProt P0CAP4 1-446) (natural protein)
